This sample holds only a part of the variants without activity.
Legend:
biotinyl-Phe-oxazolone = test: self-aminoacylation, catalytic enhancement (BFO) (fold over background); higher = more active; k-Seq, kA / k0A0; sequences stand for … in GGGAAUGGAUCCACAUCUACGAAUUC…UUCACUGCAGACUUGACGAAGCUG
Summary of the method: (§1)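 The uncatalyzed rate is the low-activity peak of a bimodal Gaussian fit, and catalytic enhancement is median kA divided by it. The kA values came from pseudo-first-order fits, with 1000 bootstraps, of per-sequence fraction reacted measured by streptavidin capture, triplicate qPCR and Illumina sequencing. Mutagenized RNA pools with a 21-nt variable region (0.43 μM) were reacted with each biotinyl-aminoacyl-oxazolone at 2–1250 μM in 50 μL HEPES/NaCl/KCl/MgCl2/CaCl2 buffer with 5% acetonitrile, pH 6.9–7.0, for 90 minutes at room temperature.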

biotinyl-Ile-oxazolone = test: self-aminoacylation, catalytic enhancement (BIO) (fold over background); higher = more active; k-Seq, kA / k0A0; sequences stand for … in GGGAAUGGAUCCACAUCUACGAAUUC…UUCACUGCAGACUUGACGAAGCUG
Summary of the method: as §1

biotinyl-Met-oxazolone = test: self-aminoacylation, catalytic enhancement (BMO) (fold over background); higher = more active; k-Seq, kA / k0A0; sequences stand for … in GGGAAUGGAUCCACAUCUACGAAUUC…UUCACUGCAGACUUGACGAAGCUG
Summary of the method: as §1

biotinyl-Val-oxazolone = test: self-aminoacylation, catalytic enhancement (BVO) (fold over background); higher = more active; k-Seq, kA / k0A0; sequences stand for … in GGGAAUGGAUCCACAUCUACGAAUUC…UUCACUGCAGACUUGACGAAGCUG
Summary of the method: as §1

biotinyl-Leu-oxazolone = test: self-aminoacylation, catalytic enhancement (BLO) (fold over background); higher = more active; k-Seq, kA / k0A0; sequences stand for … in GGGAAUGGAUCCACAUCUACGAAUUC…UUCACUGCAGACUUGACGAAGCUG
Summary of the method: as §1

biotinyl-Trp-oxazolone = test: self-aminoacylation, catalytic enhancement (BWO) (fold over background); higher = more active; k-Seq, kA / k0A0; sequences stand for … in GGGAAUGGAUCCACAUCUACGAAUUC…UUCACUGCAGACUUGACGAAGCUG
Summary of the method: as §1

| Sequence | self-aminoacylation (biotinyl-Phe-oxazolone) | self-aminoacylation (biotinyl-Ile-oxazolone) | self-aminoacylation (biotinyl-Met-oxazolone) | self-aminoacylation (biotinyl-Val-oxazolone) | self-aminoacylation (biotinyl-Leu-oxazolone) | self-aminoacylation (biotinyl-Trp-oxazolone) |
| --- | --- | --- | --- | --- | --- | --- |
| CUACUUCACACACUCGGUCUG [Fam1A.1 aminoacylation ribozyme variant] | 1.31 | 1.42 | 1.42 | 1.49 | 1.69 | 1.16 |
| CUACUUCACACAGUCGGUCUG [Fam1A.1 aminoacylation ribozyme variant] | 0.389 | 0.65 | 0.619 | 0.731 | 0.682 | 0.682 |
| CUACUUCACACCAUCGGUCUG [Fam1A.1 aminoacylation ribozyme variant] | 0.625 | 0.82 | 0.943 | 0.949 | 0.764 | 0.885 |
| CUACUUCACUCAAUCGGUCUG [Fam1A.1 aminoacylation ribozyme variant] | 0.865 | 0.732 | 0.72 | 0.934 | 0.719 | 0.651 |
| CUACUUCAGAAAAUCGGUCUG [Fam1A.1 aminoacylation ribozyme variant] | 1.55 | 0.791 | 0.803 | 0.816 | 0.757 | 0.826 |
| CUACUUCAGACAAGCGGUCUG [Fam1A.1 aminoacylation ribozyme variant] | 0.263 | 0.839 | 1.26 | 0.96 | 0.966 | 0.406 |
| CUACUUCAGACAAUCGAUCUG [Fam1A.1 aminoacylation ribozyme variant] | 0.994 | 0.669 | 0.542 | 0.634 | 0.477 | 0.493 |
| CUACUUCAGACAAUCGGACUG [Fam1A.1 aminoacylation ribozyme variant] | 0.835 | 0.864 | 0.586 | 0.829 | 0.662 | 0.652 |
| CUACUUCAGACAAUCGGUGUG [Fam1A.1 aminoacylation ribozyme variant] | 3.43 | 1.23 | 1.57 | 1.4 | 1.5 | 1.7 |
| CUACUUCAGACAAUCGGUUUG [Fam1A.1 aminoacylation ribozyme variant] | 0.819 | 0.771 | 0.613 | 0.86 | 0.596 | 0.646 |
| CUACUUCAGACAAUCGUUCUG [Fam1A.1 aminoacylation ribozyme variant] | 0.453 | 0.59 | 0.477 | 0.659 | 0.512 | 0.342 |
| CUACUUCAGACAAUGGGUCUG [Fam1A.1 aminoacylation ribozyme variant] | 0.994 | 0.948 | 0.798 | 0.791 | 0.916 | 0.664 |
| CUACUUCAGAGAAUCGGUCUG [Fam1A.1 aminoacylation ribozyme variant] | 0.895 | 0.846 | 0.951 | 0.806 | 0.853 | 0.7 |
| CUACUUCAUACAAACGGUCUG [Fam1A.1 aminoacylation ribozyme variant] | 1.06 | 0.936 | 0.725 | 0.803 | 0.652 | 0.536 |
| CUACUUCAUACAAUCGCUCUG [Fam1A.1 aminoacylation ribozyme variant] | 0.52 | 0.66 | 0.626 | 0.627 | 0.605 | 0.357 |
| CUACUUCAUACAAUCGUUCUG [Fam1A.1 aminoacylation ribozyme variant] | 0.733 | 0.535 | 0.476 | 0.655 | 0.477 | 0.371 |
| CUACUUCAUACAUUCGGUCUG [Fam1A.1 aminoacylation ribozyme variant] | 1.05 | 0.955 | 0.894 | 0.965 | 1.04 | 0.96 |
| CUACUUCCAACAAUCCGUCUG [Fam1A.1 aminoacylation ribozyme variant] | 0.668 | 0.794 | 0.771 | 0.886 | 0.999 | 0.524 |
| CUACUUCCAACAAUCGAUCUG [Fam1A.1 aminoacylation ribozyme variant] | 0.773 | 0.747 | 0.494 | 0.549 | 0.664 | 0.608 |
| CUACUUCCAACAAUCGGUCUG [Fam1A.1 aminoacylation ribozyme variant] | 1.11 | 0.766 | 0.722 | 0.768 | 0.702 | 0.831 |
| CUACUUCCAACACUCGGUCUG [Fam1A.1 aminoacylation ribozyme variant] | 0.522 | 0.978 | 1.03 | 0.958 | 1.01 | 0.796 |
| CUACUUCGAACAAUCCGUCUG [Fam1A.1 aminoacylation ribozyme variant] | 0.35 | 0.636 | 0.738 | 0.745 | 0.587 | 0.588 |
| CUACUUCGAACAAUCGGACUG [Fam1A.1 aminoacylation ribozyme variant] | 0.493 | 0.679 | 0.593 | 0.502 | 0.65 | 0.492 |
| CUACUUCGAACAAUCGGUCCG [Fam1A.1 aminoacylation ribozyme variant] | 2.05 | 0.879 | 1.09 | 0.738 | 0.865 | 0.959 |
| CUACUUCGAACAAUCGGUCGG [Fam1A.1 aminoacylation ribozyme variant] | 2.37 | 1.02 | 1.34 | 0.922 | 1.41 | 0.974 |
| CUACUUCGAACACUCGGUCUG [Fam1A.1 aminoacylation ribozyme variant] | 3.18 | 1.02 | 1.04 | 1.18 | 1.32 | 1 |

| Sequence | self-aminoacylation (biotinyl-Phe-oxazolone) | self-aminoacylation (biotinyl-Ile-oxazolone) | self-aminoacylation (biotinyl-Met-oxazolone) | self-aminoacylation (biotinyl-Val-oxazolone) | self-aminoacylation (biotinyl-Leu-oxazolone) | self-aminoacylation (biotinyl-Trp-oxazolone) |
| --- | --- | --- | --- | --- | --- | --- |
| CUACUUCGAACAUUCGGUCUG [Fam1A.1 aminoacylation ribozyme variant] | 0.576 | 1.29 | 1.05 | 1.32 | 1.18 | 0.84 |
| CUACUUCGAAGAAUCGGUCUG [Fam1A.1 aminoacylation ribozyme variant] | 0.287 | 0.875 | 0.933 | 0.839 | 0.757 | 0.567 |
| CUACUUCGAGCAAUCGGUCUG [Fam1A.1 aminoacylation ribozyme variant] | 0.728 | 0.951 | 1.15 | 1.01 | 0.815 | 0.703 |
| CUACUUCGCACAAUCGGUCUG [Fam1A.1 aminoacylation ribozyme variant] | 0.439 | 0.867 | 0.94 | 0.961 | 0.999 | 0.591 |
| CUACUUCUAACAAUCGAUCUG [Fam1A.1 aminoacylation ribozyme variant] | 0.698 | 0.674 | 0.522 | 0.67 | 0.509 | 0.416 |
| CUACUUCUAACAAUCGGCCUG [Fam1A.1 aminoacylation ribozyme variant] | 1.01 | 1.09 | 0.997 | 1.2 | 1.31 | 1.05 |
| CUACUUCUAACAAUCGGUCUC [Fam1A.1 aminoacylation ribozyme variant] | 0.799 | 0.686 | 0.634 | 0.664 | 0.572 | 0.571 |
| CUACUUCUAACAAUCGGUCUU [Fam1A.1 aminoacylation ribozyme variant] | 0.801 | 0.748 | 0.701 | 0.871 | 0.753 | 0.465 |
| CUACUUCUAACGAUCGGUCUG [Fam1A.1 aminoacylation ribozyme variant] | 0.785 | 0.675 | 0.747 | 0.688 | 0.622 | 0.505 |
| CUACUUCUAAUAAUCGGUCUG [Fam1A.1 aminoacylation ribozyme variant] | 1.02 | 0.776 | 0.699 | 0.792 | 0.63 | 0.774 |
| CUACUUGAAACAACCGGUCUG [Fam1A.1 aminoacylation ribozyme variant] | 0.529 | 1.07 | 1.18 | 1.01 | 0.805 | 1.24 |
| CUACUUGAAACAAUCCGUCUG [Fam1A.1 aminoacylation ribozyme variant] | 0.462 | 0.813 | 1.03 | 0.836 | 0.759 | 1.44 |
| CUACUUGAAACAAUCUGUCUG [Fam1A.1 aminoacylation ribozyme variant] | 0.472 | 0.655 | 0.747 | 0.657 | 0.636 | 0.496 |
| CUACUUGAAUCAAUCGGUCUG [Fam1A.1 aminoacylation ribozyme variant] | 0.466 | 0.857 | 0.811 | 0.782 | 0.705 | 0.582 |
| CUACUUGGAACAAUCGGUCUG [Fam1A.1 aminoacylation ribozyme variant] | 0.848 | 0.831 | 0.904 | 0.833 | 0.788 | 0.642 |
| CUACUUUAAACAACCGGUCUG [Fam1A.1 aminoacylation ribozyme variant] | 0.725 | 0.909 | 0.996 | 0.973 | 0.978 | 1.07 |
| CUACUUUAAACAAUAGGUCUG [Fam1A.1 aminoacylation ribozyme variant] | 0.945 | 0.925 | 0.979 | 0.891 | 0.841 | 0.648 |
| CUACUUUAAACAGUCGGUCUG [Fam1A.1 aminoacylation ribozyme variant] | 0.582 | 0.837 | 0.765 | 0.845 | 0.812 | 0.651 |
| CUACUUUAAAUAAUCGGUCUG [Fam1A.1 aminoacylation ribozyme variant] | 1.03 | 0.923 | 0.869 | 0.902 | 0.82 | 0.885 |
| CUACUUUAUACAAUCGGUCUG [Fam1A.1 aminoacylation ribozyme variant] | 0.815 | 0.857 | 0.832 | 0.882 | 0.808 | 0.626 |
| CUAGUCCAAACAAUCGGUCUG [Fam1A.1 aminoacylation ribozyme variant] | 1.03 | 0.963 | 0.736 | 0.767 | 0.755 | 1.01 |
| CUAGUUCAAACAAGCGGUCUG [Fam1A.1 aminoacylation ribozyme variant] | 1.21 | 1.2 | 1.54 | 0.93 | 1.08 | 1.19 |
| CUAGUUCAAACAAUCGGCCUG [Fam1A.1 aminoacylation ribozyme variant] | 12.4 | 1.71 | 1.76 | 1.84 | 2.2 | 11.2 |
| CUAGUUCAAACAAUCGGUCCG [Fam1A.1 aminoacylation ribozyme variant] | 0.893 | 0.787 | 0.742 | 0.649 | 0.745 | 0.582 |
| CUAGUUCAAACAAUCGGUCUC [Fam1A.1 aminoacylation ribozyme variant] | 9.67 | 0.896 | 0.795 | 0.863 | 1.25 | 5.9 |

— the supplement of paper PMC9233669
